Read-outs that look alike come from different tables or passages of the source.
Assays:
[1] = molecular target: His-tagged human recombinant αVβ3 integrin (human) (UniProt P06756); assay: BLI
[2] = molecular target: His-tagged human recombinant αVβ3 integrin (human) (UniProt P06756); assay: BLI; remark: listed apart in the source

His-tagged human recombinant αVβ3 integrin (human), sequence (P06756 31-1048, chain 1 of 2): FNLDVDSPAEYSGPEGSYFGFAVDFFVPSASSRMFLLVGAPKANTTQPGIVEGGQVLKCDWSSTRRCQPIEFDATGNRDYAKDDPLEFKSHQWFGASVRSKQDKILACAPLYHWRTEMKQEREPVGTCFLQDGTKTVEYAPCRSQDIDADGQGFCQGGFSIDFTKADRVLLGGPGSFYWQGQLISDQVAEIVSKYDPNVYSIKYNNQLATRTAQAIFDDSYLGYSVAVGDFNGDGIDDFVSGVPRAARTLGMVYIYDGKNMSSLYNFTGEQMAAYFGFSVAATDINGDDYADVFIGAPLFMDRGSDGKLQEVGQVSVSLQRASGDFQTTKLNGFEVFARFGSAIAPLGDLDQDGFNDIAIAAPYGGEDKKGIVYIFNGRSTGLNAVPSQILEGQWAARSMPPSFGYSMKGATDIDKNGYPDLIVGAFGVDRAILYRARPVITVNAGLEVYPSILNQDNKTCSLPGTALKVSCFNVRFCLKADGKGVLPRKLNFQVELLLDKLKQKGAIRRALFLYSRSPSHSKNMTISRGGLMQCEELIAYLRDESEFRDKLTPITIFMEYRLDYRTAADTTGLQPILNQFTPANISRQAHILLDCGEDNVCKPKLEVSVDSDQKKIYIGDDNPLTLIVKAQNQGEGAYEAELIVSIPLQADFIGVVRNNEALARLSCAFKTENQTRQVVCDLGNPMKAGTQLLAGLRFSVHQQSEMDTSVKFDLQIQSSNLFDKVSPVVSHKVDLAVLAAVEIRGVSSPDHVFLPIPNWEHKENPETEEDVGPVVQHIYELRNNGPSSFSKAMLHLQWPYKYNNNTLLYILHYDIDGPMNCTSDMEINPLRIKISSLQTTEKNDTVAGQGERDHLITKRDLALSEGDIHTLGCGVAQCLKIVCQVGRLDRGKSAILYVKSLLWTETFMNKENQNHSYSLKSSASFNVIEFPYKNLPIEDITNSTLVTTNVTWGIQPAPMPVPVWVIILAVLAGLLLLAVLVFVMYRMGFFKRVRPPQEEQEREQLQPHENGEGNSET
His-tagged human recombinant αVβ3 integrin (human), sequence (P05106 27-718, chain 2 of 2, further chain): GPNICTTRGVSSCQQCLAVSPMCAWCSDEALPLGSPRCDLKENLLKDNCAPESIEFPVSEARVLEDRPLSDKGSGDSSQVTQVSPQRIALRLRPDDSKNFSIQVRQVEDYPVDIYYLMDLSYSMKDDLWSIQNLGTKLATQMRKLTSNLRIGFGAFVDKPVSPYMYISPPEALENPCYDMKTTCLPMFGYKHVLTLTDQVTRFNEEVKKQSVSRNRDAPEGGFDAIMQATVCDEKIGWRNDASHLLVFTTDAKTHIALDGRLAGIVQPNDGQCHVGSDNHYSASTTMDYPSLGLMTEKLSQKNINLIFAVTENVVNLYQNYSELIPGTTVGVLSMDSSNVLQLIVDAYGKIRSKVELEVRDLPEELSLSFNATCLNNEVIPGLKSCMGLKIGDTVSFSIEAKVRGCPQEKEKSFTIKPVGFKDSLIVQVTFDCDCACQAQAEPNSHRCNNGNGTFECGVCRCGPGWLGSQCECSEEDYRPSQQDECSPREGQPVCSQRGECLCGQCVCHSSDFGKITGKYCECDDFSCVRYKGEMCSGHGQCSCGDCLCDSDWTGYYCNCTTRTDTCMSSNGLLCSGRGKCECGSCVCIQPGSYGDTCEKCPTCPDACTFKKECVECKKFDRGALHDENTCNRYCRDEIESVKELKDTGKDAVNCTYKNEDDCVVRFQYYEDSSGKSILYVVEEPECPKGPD
human vitronectin, sequence (P04004 20-478): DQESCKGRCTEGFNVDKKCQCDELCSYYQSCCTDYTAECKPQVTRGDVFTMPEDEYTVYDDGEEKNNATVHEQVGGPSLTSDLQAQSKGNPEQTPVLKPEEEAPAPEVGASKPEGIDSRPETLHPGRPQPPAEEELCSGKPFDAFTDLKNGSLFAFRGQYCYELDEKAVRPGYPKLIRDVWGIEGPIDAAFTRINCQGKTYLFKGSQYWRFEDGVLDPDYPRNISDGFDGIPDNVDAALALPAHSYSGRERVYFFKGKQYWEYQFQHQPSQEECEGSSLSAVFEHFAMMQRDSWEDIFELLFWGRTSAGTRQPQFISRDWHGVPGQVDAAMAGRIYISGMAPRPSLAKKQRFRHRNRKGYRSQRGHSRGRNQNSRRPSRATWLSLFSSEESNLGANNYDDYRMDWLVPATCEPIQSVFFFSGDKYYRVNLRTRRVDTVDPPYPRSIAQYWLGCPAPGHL

human plasma fibronectin (ligand)
Kd [1]: 54 nM

human vitronectin (from UniProt P04004 20-478) (ligand)
Kd [1]: < 0.001 nM
Kd [2]: 303 nM

native human fibrinogen (from UniProt P02671 36-866; P02675 45-491; P02679 27-453) (ligand)
Kd [1]: 8.15 nM

— paper doi:10.1101/200493
